This is an account of results in paper PMC3307893.

For the test, the target named is Anaphase-Promoting Complex/Cyclosome (APC), Xenopus, immunoprecipitated on Cdc27 antibody beads (Xenopus (endogenous in egg extract)). The test is described as follows: pull-down.

Regarding “double HA-tagged human Cdc20, wild type (from UniProt Q12834 1-499) (natural protein)”, the percent of the deubiquitinated Cdc20 bound to the APC was found to be 47%.
